pKd: −log10 of the molar value.

Experiment [1] has as its target Biotinylated HER2 extracellular domain (human) (UniProt P04626). As to the kind of experiment: SPR (BIAcore), biotinylated HER2 ECD on streptavidin chip, scFv injected, 1:1 Langmuir fit.
Experiment [2] deals with HER2 on SK-BR-3 human breast cancer cells (human) (UniProt P04626). The experiment is described as follows: flow cytometry on SK-BR-3 cells, human IgG1, anti-human IgG-FITC detection. (In general: Flow cytometry measures light scatter and fluorescence of single cells or particles in a stream.)

Broadly, the pKd is the Kd on a negative log10 scale, so that one unit is a factor of ten. Broadly, the koff is a measure of how fast the partners let go of each other. Low readings indicate a long-lived complex, high ones a short-lived complex. What is called kon is the rate constant with which the complex forms. A lower kon goes with slow association. In experiment [1], 4D5-b (4D5 scFv, VL 52D) gave a pKd of 8.12, an off-rate (koff) of 0.00091 s⁻¹ and a kon of 120000 M⁻¹ s⁻¹.

One may read the EC50 as the concentration that produces a half-maximal response. A low value points to higher potency in that assay. As to “4D5 as human IgG1, VL 52D (WT/52D) (antibody)”, the EC50 in experiment [2] turned out to be 0.925 µg/mL.

Values taken from patent publication US20170240619A1.
